Data: the nanobody polyreactivity screen of Harvey et al. (2022)

assay: yeast display, Sf9 membrane polyspecificity reagent, FACS + sequencing; frameworks hold sequencing errors
Outline: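 Sorting gates, low and high (top ~1%), were placed on anti-HA fluorescence to track expression and on streptavidin fluorescence to track reagent binding. A clone's polyreactivity label is taken from the gate it came out of. The reagent was 10% biotinylated, detergent-solubilized Sf9 membrane, applied for 1 hour at 4 °C to galactose-induced yeast display cells.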

Row | Sequence | polyreactivity (PSR sort gate)
1 | QDQLVESGGGLVQAGGSLRLSCAASGIIFYGYGMGWYRPAPGKERELVAAISRSGGSTYYADSVKGRFTISRDNAKNTVYLQMNSLKPEDTAVYSCAASGVTYDYWGQGTQVTVSS | high polyreactivity
2 | QVQLVESGGGLVQAGGSLSLSCAASGSIFYNYAMGWYRQAPGKEREFVAAISWSGDTTYYADSVKGRFTISRDNAKNTVYLQMNSLKPEDTAVYYCNADIYASEYYYWGQGTQVTVSS | low polyreactivity
3 | QVQLVESGGGLVQAGGSLRLSCAASGFTFVYYDMGWYRQAPGKERELVAAISRSGGSTYYADSVKGRFTISRDNAQNTVYLQMNSLKPEDTAVYYCAAGKNYGSRLSYEYWGQGTQVTVSS | high polyreactivity
4 | QVQLVESGGGLVQAGGSLRLSCAASGYTLGVNAMGWYRQAPGKERELVAAINYIDTRTYYADSVKGRFTISRDNAKNTVYLQMNSLKPEDTAVYYCAALPYVPWVKRYYYWGQGTQVTVSS | low polyreactivity
5 | QVQLVDSGGGLVQAGGSLRLSCASSGNTFAGNARGWYRQAPGTERELVAAISRSGVTTRYADSVKGRFTISRDNAKNTVYLQMNSLKQEDTAVYYCNADPRLRQTRDYWGHGTQVTVSS | high polyreactivity
6 | QVQLVESGGGLVQAGGSLRLSCAASGRTFTGYNMGWYRQEPGKEREFVAAISSNGGRTYYADSVKGRFTISRDNAKNTVYLQMNSLKPEDTAVYYCAAPFTFWGQGTQVTVSS | high polyreactivity
7 | QVQLVESGGGLVQAGGSLRLSCAASGGTFGSNAMGWYRQAPGKERELLAAITSRGGSTSYADSVKGRFTISRDYAKNTVYLQMKSLKPEDTAVYYCASVRYYWRPYVVNFDYWGQGTQVTVSS | high polyreactivity
8 | KVQLVESGAGFVQAGGSLRLSCAASGFIFPVYTMGWYRQAPGKERELVAAITQIGGSTHYADSVKGRFTISRDNAKNTVYLQMNSLKPEYTAVYYCNAVPHPYDWGQGTQVTLSS | low polyreactivity
9 | PVQLQESGGGLVQAGGSLRLSCAASGNIFDADIMGWNRQAPGKESDLVACIADGGSTNYADSVKGRFTISRDNAKNTVYLQMNSLKPEDTAVHYCAAIAYPDIPTCFDYDSDYFFRGQGTQVTVSS | low polyreactivity
10 | QVQLVESGGGLVQAGGSLRLSCAASGRTIEGNVMGWYRQAPGKERELVAAITRTAGSTYYADSVKGRFTISRDNAKNTVYLQMNSLKPEDTAVYYCAVEGIYRWYDYSWYYTSTYDYWGQGTQVTVSS | low polyreactivity
11 | QVQIVESGGGLVQAGGSLRLSCAASGRIFYRYDMGWYRQAPGKERELVAVISGGGTYYADSVKGRFTISRDNAKNTVYLQMNSLKPEDTAVYYCAADDGVSLVSPYYGGYDYWGQGTQVTVSS | low polyreactivity
12 | QVQLVESGGGLVQAGGSLRLSCAASGSIFRWYAMGWYRQAPGKERELVAVISYGGGSTYYADSVKGRFTISRDNAKNTVYLQMNSLKPEDTAVYYCAADPTWRYYYHYTYYYWGQGTQVTVSS | high polyreactivity
13 | QVQLVESGGGLVQAGGSLRLSCAPSGSIFSWYAMGWYRQAPGKERELVAAIDDDDSTNYADSVKGRFTISRDNAKNTVYLQMNSQKPEDTAVYYCNTRSRPYWYIYRPGDYWGQGTQVTVSS | low polyreactivity
14 | QVQLVETGGGLVQAGGSLRLSCAASGSNFLPNAMGWYRQAPGKERELVARISYSGGNTYYADSVKGRFTISRDNAKNTVYLQMNSLKPEDTAVYYCATSHYYNDYTGRRYYYWGQGTQVTVSS | high polyreactivity
15 | QVQLVESGGGLVQAGGSLRLSCAASGSTFSSNAMGWYRQAPGKERELVAAINRRGGTYYADSVKGRFTISRDNAKNTVYLQMNSLKPEDTAVYYCAAASPYHEYDYCGQGTQVTVSS | low polyreactivity
16 | QVQLVESGGGLVQAGGSLRLSCAASGIIFGRYAMGWYRQAPGKERELVAAISTSGGSTYYADSVKGRFTISRDNAKNTVYLQMNSLKPEDTAVYYCNAVPVVRAGHGYDSWGQGTQVTVSS | high polyreactivity
17 | QVQLVESGGGLVQAGGSLRLSCAASGRTFALNAMGWYRQAPGKERELVADISYSGGSTYYADSVKGRFTISRDNAKNTVYLQMNSLKPEDTAVYYCAADSPWYVAYYYGYRVDYWGQGTQVTVSS | high polyreactivity
18 | QVQLVESGGGLVQAGGSLRLSCAASGSIFTYYAMGWYRQAPGKERELVAAITRRGGSTYYADSVKGRFTISRDNAKNTVYLQMNSLKPEDTAVYYCNAFTYWASYWDYDYWGQGTQVTVSS | low polyreactivity
19 | QVQLVESGGGLVQAGGSLRLSCAASGFTFNPNAMGWYRQAPGKERELVAAITWSSGRTYYADSVKGRFTISRDNAKNTVYLQMNSLKPEDTAVYYCAARGYSYNYDYWGQGTQVTVSS | high polyreactivity
20 | QVQLVESGGGLVQAGGSLRLSCAASGITFRSNAMGWYRQAPGKERELVATISYRGASTYYADSVKGRFTISRDNAKNTVYLQMNSLKPEYTSVYYCNVRNRYWRSRVDYWGQGTQVTVSS | high polyreactivity
21 | QVQLVESGAGLVQARGSLRLTCAASGGTFLSYAKGWYRQAPGKERELVAGISSGGSTNYADSVKGRFTISRDNAKNTVYLQMNSLKPEDTAVYYCAADSFPSEFDYWGQGTQVTVSS | low polyreactivity

Row | Sequence | polyreactivity (PSR sort gate)
22 | QVQLVESGGGLVQAGGSLRLSCAASGSIFNYNAMGWYRQAPGKERELVAAISSGGSTNYADSVKGRFTISRDNAKNTVYLQMNSLKPEDTAVYYCAKRWWVYYPRYDYWGQGTQVTVSS | high polyreactivity
23 | QVQLVESGGGLVHAGGSLRLSCAASGFTFYRNTMGWYRQAPGKERELVAAISTRAGSTYYADSVKGRFTISRDNAKNTVYLQMNSLKPEDTAVYYCAVLTYRGRFEYWGQGTQVTVSS | high polyreactivity
24 | QVQLVESGGGLVQAGGSLRLSCAASGITFSYNAMGWYRQAPGKERQLVAAITWSGDSTYYADSVKGRFTISRDNAKNTVYLQMNSLKREDTAVYYCNARYLRLRYPYTDEYNYWGQGTQVTVSS | low polyreactivity
25 | QVQLVESGGGLVQAGGSLRLSCAASGRTVRRYARGWYRQAPGKERELVATIRSGDNTNYADSVKGRFTISRDNAKNTVYLQMNSLKPEDTAVYYCNRSPKSGQVTYLYSVNAHYDYWGQGTQVTVSS | low polyreactivity
26 | QVQLVESGGGLVQAGGSLRLSCAASGRIFDYAMGWYRQAPGKERELVAAISGSGGSTYYADSVKGRFTISRDNAKNTVYLQMNSLKPEDTAVYYCSTSGPQYYSRNFDYWGQGTQVTVSS | low polyreactivity
27 | QFQLVESGGGLDQAGGSLRLSCAASGFIFSWYAMGWYRQAPGKERELVAAINWSGGSTYYADSVKGRFTISRDNAKNTVYLQMNSLKPEDTAVYYCAAVRQSQFEYWGQGTQVTVSS | high polyreactivity
28 | QVQLVESGGGLVQAGGSLRLSCAASGFTFRRYAMGWYRPAPGKERELVAAITPNGGSTYYADSVKGRFTISRDNAMNNFYLQMNRLKPEDTAVYYCNAVLYTPVYDGFDSWGQGTQVTVSS | high polyreactivity
29 | QVQLVESGGGLVQAGGSLRLSCAASGIIFLVYAMGWSRQAPGKEGQLVAGISGSATSTNYADSVKGRFTISRDNAKNTVYLEMNSLKPEDTAVYYCAASYYGYYVPDNSKYGYWGQGTQVTVSS | low polyreactivity
30 | QVQLVESGGGLVQAGGSLRLSCAASGFTFTYYAMGWYRQAPGKERELVAVISSAGSTYNADSVKGRFTISRDNAKNTVYLQMNSLKPEDTAVYYCNAVGRYYSSGRYGHWGQGTQVTVSS | high polyreactivity
31 | QVQLVESGGGLVQAGGSLRLSCAASGSIFSIYAMGWYRQAPGKERELVAAISWSGGSTYYADSVKGRFTISRDNAKNTVYLQMTSQKPEDTAVYYCLRQDYHYHPYDYWGQGTQVTVSS | low polyreactivity
32 | QVQLGESGGGLVQAGGSLRLICAASGFTFYDYAMGWYRQEPGKETEFVAAITRSGSSTYYADSVKGRFTISRDNAKNTVYLQMNSLKPEDTAVYYCAVGPFRRRGHYPTYYRYGYWGQGTQVTVSS | high polyreactivity
33 | QVQLVESGGGLVQAGGSLSLICAASGFIFDVYAMGWYRQAPGKERELVAAISRSGGSTHYADSVKGRFTISRDNAKNTVYLQMNSLKPEDTAVYYFATRIRVGYAKYDYWGQGTQVTVSS | high polyreactivity
34 | QVQLVESGGGLVQARGSLRLSCAASGRTYAGYAMGWYRQAHGKERELVASITSGGRTYYADSVKGRFTISRDNAKNTVYLQMNSLKPEDTAVYYCNKVYKSYYWGGYDWGQGTQVTVSS | high polyreactivity
35 | IIQAGGSLRLSCAASGRTFSGYAMGWYRQAPGKERELIDDITSGGSTYYADSVKGRFTISRDNAKNTVYIQMNSLKPEDTAVYYCAAERHIRSFSSSRTYEFGYWGQGTQVTVSS | low polyreactivity
36 | QVQLVESGGGLVQAGGSLRLSCAASGRIFARNALGWYRQAPGKEGELVARIRASGGSTYYADSVKGRFTISRDNAKNTVYLQMNSLKPEDTAVYYCNARTSSPYRVDYWGQGTQVTVSS | high polyreactivity
37 | QVQLVESGGGLVQAGGSLRLSCAASGRTFNSYAMGWYRQAPGKERELVAAISRRGGSTYYADSVKGRFTISRDNAKNTVYLQMNSLKPEDTAVYYCASTIVQYISRMDYWGQGTQVTVSS | high polyreactivity
38 | QVQIVESGGGLVQAGGSLRLSCAPSGRIITRKTMGWYRQAPGKEREFVAAISQSGGRTYYADSVKGRFTISRDNAKNTVYLQMNSLKPEDTAVYYCNAQFARSSGFNYWGQGTQVTVSS | high polyreactivity
39 | QVQLVESGGGLVQAGGSLRLSCAASGSTFSRNVMAWYRQAPGKDRELVAAISRGGSTNYADSVKGRFTISRDNAKNTVYLQMNSLKPEDTAVYYCNAPRLGKFYYWGQGTQVTVSS | low polyreactivity
40 | QVQLVESGGGLVQAGGSLRLSCAASGFTFLKYAMGWYRQAPGKERELVAAISWSGDSTYYADSVKGRFTISRDNAKNTVYLQMNSLKPEDTAVYYCAATYSFYGYYYWGQGTQVTVSS | high polyreactivity
41 | QVQLVESGGGLVQAGGSLRLSCAASGRTFLVYAMGWYRQAPGKERELVADITGRGGITYYADSVKGRFTISRDNAKNTVYLQMNSLKPEDTAVYYCAAERYNSKTIYRYDYWGQGTQVTVSS | high polyreactivity
